Results reported in PMC8102066 (eLife, 2021).
Positions count from the first letter of the chain named. Numbers in names are those of the source. Where “and” joins values, the source holds several entries; their conditions need not be identical. Identical values can stand only once. Blank lines part the entries; values can stand above or below the molecule they belong to.

Experiments:
[1] = test system: SNAP-tagged mGluR2 and mGluR3 constructs; test: Surface expression measurements; type: cell-based, rat; settings: construct; single measurements
Description: ImageJ was used to analyze fluorescence intensity of cell clusters. […] Fluorescence intensity values for each construct were normalized to wild-type values for comparison.

mGluR2 = mGluR2 (Rattus norvegicus, UniProt P31421); test: Inter-LBD FRET (N-terminal SNAP-tags), live cells; settings: SNAP-mGluR2
mGluR2-3xTM4 = mGluR2-3xTM4 (Rattus norvegicus, UniProt P31421, A677S/A681F/A685G); test: Inter-LBD FRET (N-terminal SNAP-tags), live cells; settings: SNAP-mGluR2-3xTM4
mGluR3 = mGluR3 (Rattus norvegicus, UniProt P31422); test: Inter-LBD FRET (N-terminal SNAP-tags), live cells; settings: SNAP-mGluR3

Sequence of mGluR2 (P31421 19-872): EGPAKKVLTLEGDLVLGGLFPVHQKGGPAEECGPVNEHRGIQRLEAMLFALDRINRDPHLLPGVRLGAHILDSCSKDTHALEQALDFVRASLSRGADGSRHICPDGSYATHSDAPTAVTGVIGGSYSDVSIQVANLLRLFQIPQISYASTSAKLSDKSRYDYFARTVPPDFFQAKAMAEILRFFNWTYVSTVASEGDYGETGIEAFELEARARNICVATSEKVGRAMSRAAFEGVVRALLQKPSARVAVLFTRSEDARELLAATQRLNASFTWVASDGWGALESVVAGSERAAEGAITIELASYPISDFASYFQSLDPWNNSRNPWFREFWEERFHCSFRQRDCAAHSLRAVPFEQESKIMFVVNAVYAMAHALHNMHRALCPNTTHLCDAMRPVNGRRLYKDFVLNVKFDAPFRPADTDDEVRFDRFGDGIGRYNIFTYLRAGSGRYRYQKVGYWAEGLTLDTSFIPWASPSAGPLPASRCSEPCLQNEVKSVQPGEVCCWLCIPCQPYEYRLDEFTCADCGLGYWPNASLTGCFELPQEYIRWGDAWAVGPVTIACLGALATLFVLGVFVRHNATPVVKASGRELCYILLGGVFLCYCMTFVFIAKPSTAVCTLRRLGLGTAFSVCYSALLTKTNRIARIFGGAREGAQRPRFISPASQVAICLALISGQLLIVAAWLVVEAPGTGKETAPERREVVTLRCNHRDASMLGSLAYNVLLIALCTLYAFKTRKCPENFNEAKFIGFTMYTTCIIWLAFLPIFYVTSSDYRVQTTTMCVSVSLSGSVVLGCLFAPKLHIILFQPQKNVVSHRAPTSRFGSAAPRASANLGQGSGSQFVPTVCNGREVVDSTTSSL

Basal LBD FRET (%) (mGluR2-3xTM4): 0%
B3: SNAP-mGluR2-3xTM4 (protein)
chain: EGPAKKVLTLEGDLVLGGLFPVHQKGGPAEECGPVNEHRGIQRLEAMLFALDRINRDPHLLPGVRLGAHILDSCSKDTHALEQALDFVRASLSRGADGSRHICPDGSYATHSDAPTAVTGVIGGSYSDVSIQVANLLRLFQIPQISYASTSAKLSDKSRYDYFARTVPPDFFQAKAMAEILRFFNWTYVSTVASEGDYGETGIEAFELEARARNICVATSEKVGRAMSRAAFEGVVRALLQKPSARVAVLFTRSEDARELLAATQRLNASFTWVASDGWGALESVVAGSERAAEGAITIELASYPISDFASYFQSLDPWNNSRNPWFREFWEERFHCSFRQRDCAAHSLRAVPFEQESKIMFVVNAVYAMAHALHNMHRALCPNTTHLCDAMRPVNGRRLYKDFVLNVKFDAPFRPADTDDEVRFDRFGDGIGRYNIFTYLRAGSGRYRYQKVGYWAEGLTLDTSFIPWASPSAGPLPASRCSEPCLQNEVKSVQPGEVCCWLCIPCQPYEYRLDEFTCADCGLGYWPNASLTGCFELPQEYIRWGDAWAVGPVTIACLGALATLFVLGVFVRHNATPVVKASGRELCYILLGGVFLCYCMTFVFIAKPSTAVCTLRRLGLGTAFSVCYSALLTKTNRIARIFGGAREGAQRPRFISPSSQVFICLGLISGQLLIVAAWLVVEAPGTGKETAPERREVVTLRCNHRDASMLGSLAYNVLLIALCTLYAFKTRKCPENFNEAKFIGFTMYTTCIIWLAFLPIFYVTSSDYRVQTTTMCVSVSLSGSVVLGCLFAPKLHIILFQPQKNVVSHRAPTSRFGSAAPRASANLGQGSGSQFVPTVCNGREVVDSTTSSL
modifications: SNAP tag labelled with BG-LD555; left off: HA, N-terminal, kept | SNAP, N-terminal, kept

Basal LBD FRET (%) (mGluR3): 20% and 30% and 23% and 24%
B4: SNAP-mGluR3 (protein)
chain: LGDHNFMRREIKIEGDLVLGGLFPINEKGTGTEECGRINEDRGIQRLEAMLFAIDEINKDNYLLPGVKLGVHILDTCSRDTYALEQSLEFVRASLTKVDEAEYMCPDGSYAIQENIPLLIAGVIGGSYSSVSIQVANLLRLFQIPQISYASTSAKLSDKSRYDYFARTVPPDFYQAKAMAEILRFFNWTYVSTVASEGDYGETGIEAFEQEARLRNICIATAEKVGRSNIRKSYDSVIRELLQKPNARVVVLFMRSDDSRELIAAANRVNASFTWVASDGWGAQESIVKGSEHVAYGAITLELASHPVRQFDRYFQSLNPYNNHRNPWFRDFWEQKFQCSLQNKRNHRQVCDKHLAIDSSNYEQESKIMFVVNAVYAMAHALHKMQRTLCPNTTKLCDAMKILDGKKLYKEYLLKINFTAPFNPNKGADSIVKFDTFGDGMGRYNVFNLQQTGGKYSYLKVGHWAETLSLDVDSIHWSRNSVPTSQCSDPCAPNEMKNMQPGDVCCWICIPCEPYEYLVDEFTCMDCGPGQWPTADLSGCYNLPEDYIKWEDAWAIGPVTIACLGFLCTCIVITVFIKHNNTPLVKASGRELCYILLFGVSLSYCMTFFFIAKPSPVICALRRLGLGTSFAICYSALLTKTNCIARIFDGVKNGAQRPKFISPSSQVFICLGLILVQIVMVSVWLILETPGTRRYTLPEKRETVILKCNVKDSSMLISLTYDVVLVILCTVYAFKTRKCPENFNEAKFIGFTMYTTCIIWLAFLPIFYVTSSDYRVQTTTMCISVSLSGFVVLGCLFAPKVHIVLFQPQKNVVTHRLHLNRFSVSGTATTYSQSSASTYVPTVCNGREVLDSTTSSL
modifications: SNAP tag labelled with BG-LD555 (BG-LD655 in two-colour SiMPull); left off: HA, N-terminal, kept | SNAP, N-terminal, kept

Further lines, the molecule ahead of its results:

B1: SNAP-mGluR3-I788A (protein, UniProt Q14832 23-879, looked up, variant I788A)
Metabotropic glutamate …: LGDHNFLRREIKIEGDLVLGGLFPINEKGTGTEECGRINEDRGIQRLEAMLFAIDEINKDDYLLPGVKLGVHILDTCSRDTYALEQSLEFVRASLTKVDEAEYMCPDGSYAIQENIPLLIAGVIGGSYSSVSIQVANLLRLFQIPQISYASTSAKLSDKSRYDYFARTVPPDFYQAKAMAEILRFFNWTYVSTVASEGDYGETGIEAFEQEARLRNICIATAEKVGRSNIRKSYDSVIRELLQKPNARVVVLFMRSDDSRELIAAASRANASFTWVASDGWGAQESIIKGSEHVAYGAITLELASQPVRQFDRYFQSLNPYNNHRNPWFRDFWEQKFQCSLQNKRNHRRVCDKHLAIDSSNYEQESKIMFVVNAVYAMAHALHKMQRTLCPNTTKLCDAMKILDGKKLYKDYLLKINFTAPFNPNKDADSIVKFDTFGDGMGRYNVFNFQNVGGKYSYLKVGHWAETLSLDVNSIHWSRNSVPTSQCSDPCAPNEMKNMQPGDVCCWICIPCEPYEYLADEFTCMDCGSGQWPTADLTGCYDLPEDYIRWEDAWAIGPVTIACLGFMCTCMVVTVFIKHNNTPLVKASGRELCYILLFGVGLSYCMTFFFIAKPSPVICALRRLGLGSSFAICYSALLTKTNCIARIFDGVKNGAQRPKFISPSSQVFICLGLILVQIVMVSVWLILEAPGTRRYTLAEKRETVILKCNVKDSSMLISLTYDVILVILCTVYAFKTRKCPENFNEAKFIGFTMYTTCIIWLAFLPAFYVTSSDYRVQTTTMCISVSLSGFVVLGCLFAPKVHIILFQPQKNVVTHRLHLNRFSVSGTGTTYSQSSASTYVPTVCNGREVLDSTTSSL
modifications: N-terminal SNAP tag
Surface Expression [1]: 1.08 and 0.88 and 0.76 and 0.68 and 0.70 and 0.97 and 0.75

B2: SNAP-mGluR2 (protein)
chain: B3 chain with S659A, F663A, G667A
modifications: SNAP tag labelled with BG-LD555 (BG-LD655 in two-colour SiMPull); left off: HA, N-terminal, kept | SNAP, N-terminal, kept
Basal LBD FRET (%) (mGluR2): 0%

B5: SNAP-mGluR3-C127A-I788A (protein)
chain: B4 chain with C105A, I766A
modifications: SNAP tag labelled with BG-LD555; left off: HA, N-terminal, kept | SNAP, N-terminal, kept
Surface Expression [1]: 1.29 and 0.91 and 1.30 and 0.67 and 0.74 and 0.86 and 1.22 and 0.70
